Article doi:10.1101/2025.08.19.670962, “Structural basis for binding of RILPL1 to TMEM55B reveals a lysosomal platform for adaptor assembly through a conserved TBM motif” (bioRxiv, 2025)
Several values for one entry are separate records, joined by “and”; a condition that tells them apart may be missing. Equal values may be shown once.

B2: TMEM55B (80-166), untagged, wild type (domain or fragment)
chain: not shown
notes: N-terminal peptide left from the pET15b expression vector; TMEM55B, residues 80-166; numbers count on: UniProt Q86T03 isoform 2 (284 residues); also called WT TMEM55B region 80-166; source: E. coli BL21(DE3), purified (Ni-NTA, thrombin, second Ni-NTA, gel filtration)

How the values were obtained:
Conditions in all cases: both partners purified
TMEM55B (80-160) = molecular target: T1, TMEM55B (80-160) (UniProt Q86T03-2 80-160); assay: ITC; peptide or OCRL PH domain injected into the cell with TMEM55B_(80-160); ITC200; Tris-HCl, 150mM NaCl, 1mM DTT, pH 7.5; single binding mode
T1 construct: TMEM55B, residues 80-160; numbers count on: UniProt Q86T03 isoform 2; source: E. coli, purified

[1] = molecular target: T2, His-tagged PH domain of OCRL (1-129) (UniProt Q01968 1-129); assay: pull-down; 10μM His-tagged peptide or His-tagged OCRL PH domain as bait on Ni2+-agarose, 10μM untagged TMEM55B as prey; 20 mM Tris pH 8.0, 300 mM NaCl, 20mM imidazole, 10 mM β-mercaptoethanol; Coomassie
T2 construct: OCRL (OCRL1), PH domain, residues 1-129; also called OCRL PH domain; source: E. coli, purified (protocol similar to that of TMEM55B, no ZnCl2 added)
T2 sequence (looked up): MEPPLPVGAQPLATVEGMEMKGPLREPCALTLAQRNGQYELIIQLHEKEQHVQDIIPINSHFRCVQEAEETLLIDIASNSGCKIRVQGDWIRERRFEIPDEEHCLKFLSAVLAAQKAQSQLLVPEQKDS

[2] = molecular target: B2; assay: as above
[3] = molecular target: B2; assay: SEC-MALS; Superdex75 10/300 GL, 1-1.5 mg/mL, TMEM55B_(80-166) alone or with RILPL1 peptide

T1 sequence (Q86T03 73-153): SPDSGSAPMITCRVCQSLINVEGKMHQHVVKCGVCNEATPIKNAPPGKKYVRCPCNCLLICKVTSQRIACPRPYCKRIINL

B1: OCRL-PH domain (as used in ITC) (domain or fragment, UniProt Q01968 1-119, looked up)
chain: MEPPLPVGAQPLATVEGMEMKGPLREPCALTLAQRNGQYELIIQLHEKEQHVQDIIPINSHFRCVQEAEETLLIDIASNSGCKIRVQGDWIRERRFEIPDEEHCLKFLSAVLAAQKAQS
notes: OCRL, PH domain; residues 1-129 are stated for the His-tagged variant of the pull-down; Probably the construct of m14; source: E. coli, purified (protocol similar to that of TMEM55B, no ZnCl2 added)
- dH (TMEM55B (80-160)): -5.3 kcal/mol and -5.9 kcal/mol and -6.7 kcal/mol
- stoichiometry N (TMEM55B (80-160)): 0.69 and 0.86 and 0.68

Binder: B2
- binding result [1]: binds

B3: His-JIP4 887-897 (peptide)
peptide: GSTAEEATEATEG
notes: linker after the His6 tag; JIP4, residues 887-897; also called His-tagged JIP4 peptide; source: synthetic peptide (Genscript); not shown: His6, N-terminal, kept
- binding result [2]: binds

B4: His-WDR81 657-668 (peptide)
peptide: GSDDLEQATEALDS
notes: linker after the His6 tag; WDR81, residues 657-668; also called His-tagged WDR81 peptide; source: synthetic peptide (Genscript); not shown: His6, N-terminal, kept
- binding result [2]: binds

B5: RILPL1 391-403 peptide (peptide)
peptide: GYTEQGQEALQHL
notes: also called RL1pep; RILPL1 peptide; source: synthetic peptide (Genscript)
- stoichiometry N [3]: 1

B6: JIP4 887-897 (peptide)
peptide: TAEEATEATEG
notes: JIP4, residues 887-897; source: synthetic peptide (Genscript)
- Kd (TMEM55B (80-160)): 2900 nM and 2200 nM and 3100 nM
- dH (TMEM55B (80-160)): -8.9 kcal/mol and -9.7 kcal/mol and -8.7 kcal/mol
- stoichiometry N (TMEM55B (80-160)): 1 and 0.91 and 0.78

B7: JIP3 889-903 (peptide)
peptide: SQSTEEATEATEVPD
notes: JIP3, residues 889-903; source: synthetic peptide (Genscript)
- Kd (TMEM55B (80-160)): 127 nM and 126 nM and 103 nM
- dH (TMEM55B (80-160)): -8.2 kcal/mol and -9.3 kcal/mol
- stoichiometry N (TMEM55B (80-160)): 1.2 and 0.99 and 1.1

B8: His-RILPL1 391-403 (peptide)
peptide: GSGYTEQGQEALQHL
notes: linker after the His6 tag; also called His-tagged RILPL1 peptide; source: synthetic peptide (Genscript); not shown: His6, N-terminal, kept
- Kd (TMEM55B (80-160)): 680 nM and 590 nM and 1000 nM
- dH (TMEM55B (80-160)): -11.4 kcal/mol and -12.1 kcal/mol and -13.6 kcal/mol
- stoichiometry N (TMEM55B (80-160)): 0.87 and 0.95

B9: WDR81 657-668 (peptide)
peptide: DDLEQATEALDS
notes: WDR81, residues 657-668; source: synthetic peptide (Genscript)
- Kd (TMEM55B (80-160)): 20 nM and 33 nM and 12 nM
- dH (TMEM55B (80-160)): -9 kcal/mol and -9.1 kcal/mol and -8.7 kcal/mol
- stoichiometry N (TMEM55B (80-160)): 0.94 and 1.1
